Experimental data from article PMC2825239.

B1: CYP75A31 (Solanum lycopersicum) (protein)
chain: MALRINELFVAAIIYIIVHIIISKLITTVRERGRRLPLPPGPTGWPVIGALPLLGSMPHVALAKMAKKYGPIMYLKVGTCGMVVASTPNAAKAFLKTLDINFSNRPPNAGATHLAYNAQDMVFAPYGPRWKLLRKLSNLHMLGGKALENWANVRANELGHMLKSMFDASQDGECVVIADVLTFAMANMIGQVMLSKRVFVEKGVEVNEFKNMVVELMTVAGYFNIGDFIPKLAWMDIQGIEKGMKNLHKKFDDLLTKMFDEHEATSNERKENPDFLDVVMANRDNSEGERLSTTNIKALLLNLFTAGTDTSSSVIEWALAEMMKNPKIFKKAQQEMDQVIGKNRRLIESDIPNLPYLRAICKETFRKHPSTPLNLPRVSSEPCTVDGYYIPKNTRLSVNIWAIGRDPDVWENPLEFTPERFLSGKNAKIEPRGNDFELIPFGAGRRICAGTRMGIVVVEYILGTLVHSFDWKLPNNVIDINMEESFGLALQKAVPLEAMVTPRLSLDVYRC
B2: CYP75A8 (Catharanthus roseus) (protein)
chain: MALEKLVLFDFLAAISILILVQKFIQIVFLRSSSRIRLPPGPKGWPIIGALPYLGTMPHSILANMAKKYGPIMYLKLGTNGMVVASTPDAVKAFLRTLDMNFSNRPIDAGATHLAYNAQDMVFAHYGPKWKLLRKLSNLHMLGGKALENWSNVRATELGYMLQAMYESSRKGETVVVPEMLTYAMANMIGQVILSRRVFVTKSLESNEFKDMVVELMTTAGYFNIGDFIPSIAWMDLQGIERGMKRLHKKFDALLTKMLEEHKSSSHKRKEKPDFLDYVLANRDNSEGERLTTTNIKALLLNLFTAGTDTSSSVIEWAISEMLKNPTILKRAQEEMDQVIGRNRRLMESDIPKLPYLQAICKETFRKHPSTPLNLPRIAQKDCQVNGYYIPKGTRLSVNIWAIGRDPNVWENPLEFNPDRFLSGKMAKIEPRGNDFELIPFGAGRRICAGTRMGIVLVEYILGTLVHSFDWKLPFDDINELNMDESFGLALQKAVPLVAMVSPRLPINAYSP

Substrate: O=C1C[C@@H](c2ccc(O)cc2)Oc2cc(O)cc(O)c21
Experiment: cells, lysate or membranes
Conditions: NADPH 1.0 mM, 0.1 M sodium phosphate pH 7.0, 27°C (general assay conditions)

Row | Protein | Km (ATR1 reductase) [µM] | Km (ATR1 reductase yeast expression system, assay conditions not separately printed) [µM]
1 | B1 | 1.20 | 
2 | B2 |  | 0.83
